The values that follow come from IntAct's records for PubMed 21454543.

Experiment [1] deals with rac1_human RAC1 (UniProt P63000).
The target in experiment [2] is lrrk2_human LRRK2 (UniProt Q5S007).

For the substance “Leucine-rich repeat serine/threonine-protein kinase 2 (Homo sapiens), Q5S007 G2019S”, the “effect of a mutation on the interaction” value in experiment [1] is “decreasing interaction”. Still for that read-out and setting: with “Leucine-rich repeat serine/threonine-protein kinase 2 (Homo sapiens), Q5S007 I2020T” the entry was “increasing interaction”; with “Leucine-rich repeat serine/threonine-protein kinase 2 (Homo sapiens), Q5S007 K1906M”, “decreasing interaction”. Turning to “Leucine-rich repeat serine/threonine-protein kinase 2 (Homo sapiens), Q5S007 R1441C”, in experiment [1], the “effect of a mutation on the interaction” value was “disrupting interaction”. On the same count and under the same terms, the result for “Leucine-rich repeat serine/threonine-protein kinase 2 (Homo sapiens), Q5S007 Y1699C” reads “increasing interaction”.

Regarding “Ras-related C3 botulinum toxin substrate 1 (Homo sapiens) (from UniProt P63000) T17N”, the “effect of a mutation on the interaction” value in experiment [2] is given as “decreasing interaction”.
